Literature values, collected in patent publication US20240366723A1, “COMBINATION THERAPY FOR THE TREATMENT OF ENTERIC NEUROPATHIES” (TRANSFERT PLUS, LIMITED PARTNERSHIP, priority 2021, published 2024).

B1: BMP4: Bone morphogenetic protein 4 (protein, UniProt P12644 293-408, looked up)
Bone morphogenetic protein 4: SPKHHSQRARKKNKNCRRHSLYVDFSDVGWNDWIVAPPGYQAFYCHGDCPFPLADHLNSTNHAIVQTLVNSVNSSIPKACCVPTELSAISMLYLDEYDKVVLKNYQEMVVEGCGCR
B2: MANF: Mesencephalic Astrocyte Derived Neurotrophic Factor (protein, UniProt P55145 25-182, looked up)
Mesencephalic …: LRPGDCEVCISYLGRFYQDLKDRDVTFSPATIENELIKFCREARGKENRLCYYIGATDDAATKIINEVSKPLAHHIPVEKICEKLKKKDSQICELKYDKQIDLSTVDLKKLRVKELKKILDDWGETCKGCAEKSDYIRKINELMPKYAPKAASARTDL

Details: literature reports, various models

Molecule	Reported neurotrophic activity
B1	BMP signaling is necessary for neural crest cell
B2	MANF has neuroregenerative activity via differentiation
